Assay: soluble on expression in E. coli; label from the status in PepcDB or PDB records

Soluble on expression in E. coli, not soluble:
MGSDKIHHHHHHMDSIQESDVLNAVKTKLPPCCLRIFRNKIILVGTYDLDKSTGYRSGSLDVFTMDLKLLCSNNTYGAILDLKLSPFDDTLICTAHSTGNIMLWRIRCTDKDDFQSNELDIHAIANLQLFEKDVLIASCHFSPLDCKKLLVTNTAGEAATIDIRTLSVQFTASAIAQAYSKLDKIDYEVQGATEKVIHVESGQFLKPHELECWTAEFGSLQPFQDVVFTGGDDSRIMAHDLRSKEFIWSNNRIHDAGVVSIKCSQPNFRNNKPTSIITGSYDDNIRSLDLRMMGESIFPGANVPTVNKLACDLGGGVWRFVESPIDQEQSHHNGSDRLLVCCMYNGAKVVTMNDNSDEYFQIQHYLKKGHDSMCYGGDWSNSLIATCSFYDNSLQTWIV
MGSDKIHHHHHHMDSLDQCIVNACKNSWDKSYLAGTPNKDNCSGFVQSVAAELGVPMPRGNANAMVDGLEQSWTKLASGAEAAQKAAQGFLVIAGLKGRTYGHVAVVISGPLYRQKYPMCWCGSIAGAVGQSQGLKSVGQVWNRTDRDRLNYYVYSLASCSLPRAS
MGSDKIHHHHHHMDSSIDLSLAYADSGVGEVLDQLDCELIGLKPVKTRIREIAALLLVDRARKDLDLASTMPSLHMSFTGRPGTGKTTVAIRISQILHRLGYLRKGHVVTVTRDDLVGQYVGHTAPKTREMIKRAQGGVLFIDEAYYLYKPGNERDYGAEAIEILLQDMESRRGDFVVIFAGYKDKMDAFYQSNPGLSSRVAHHIDFPDYSNRELLAIAQLFLVQQNYYFGDEAEGIFEDYIERRRQLPFFANARSIRNALDRTRLRQANRLFARMGEPLSRDELMTIEPADILASRVFQGEVEGRHPTQPLMESSE
MGSDKIHHHHHHMDTLTRIRAFIDVVEAEGFSAAARKTGRSKALLSKYVRELEDELGALLLNRTTRQFSMTEAGHTYYRSAADILKEIDNLADLVRENNVGISGKIRITVPRSFTDAEVGQSLIDFALQHPDLSIEIVAEDRFVDLIEEGFDLAIRVTKLEDSGMIARKLADFRSYACASPVFLEKYGPLTHPQDLSKVPVLIDTNTRGHNSLRLRQPDGEAFTVNISGPLEVNSPQTTLRGALSGLGIALLPDFVARRHIESGALISIFEDYMPSGSGIYAVYPHRRYLPAKVRALVDFMHNWFKRNGTCQPKQGTPPSE
MGSDKIHHHHHHMDVRFINEQTIMIYFENKISEETYRNVTAMVRWIREKEILEIQDIVPSYRAVLIYFDEQAITSSKLIENLELNKFNEKNVHAVNQTNRIIKIPVQYGGTYGPDIEEVAKHNRITVEQVIEKHTSKPYLIYMLGFMPGFPYLGGLDEQLHTPRRNQPRLKIHAGSVGIANNQTGLYPSDSPGGWQIIGRTPLKVFSSEREPMSMYEAGEWIQFYAIDEQKFIQIERDISDGNFNVDDWVVIENVN
MGSDKIHHHHHHMEDTQSVLQEYGLTAQFIEPVSPLVWKVYTDYGIFALKKLKEGRGKHFTDHMVAIEEKGFRSFVPVYRTNSGEFFSAGIQYGDIYYLMPWLQFDQEEERDQKHAYLFRETARLHERTAQELKVRRDEIERYYGQTKKKWEQDKIFYEQFVDRAEKEWYLSPFELQAITYFSETISAVNFALERLEDWYESAKEKDVSRVVMNHGSLSIHHFLYNDAGTGYFTNFERASVGPPQNDLLGFYTKMFRGFPKACPECVEWFYGYTKSFPLREAEVSLFLSYMAYPAAMYKVLNGYQTGKRQHEKEECTQLLKAYWQMKNIEPFVMKIHQIEQEKKFQAENESTS
MGSDKIHHHHHHMEDYEGKFSPSELKLKGIHTSTTFWTVGMIVQQYKNGHLVIPKIQRGYVWNEEKARRFIMSLLQGFPIPPIFIIELSGKFYVVDGQQRIRTILWFLGEDNELLEKLGPLRVPIKELAENYNEYGVTNLSEAIIKKIIFGNHPKEFNYKYFTKDFRQYFESLSIPVQHISISSGKEYILTDIFLRINQGSVKLSAMELWRVYYGKDIEEYFHKLNELARYTVAKIYEVSNGKISRQKLERFRIDEFILTFDVLINGLITPPNYIPKDAKLGAVIFSQKTTLKKVKIFVLENRRKVFKNNKGELKKFLDYLEREYKEILKMITYVLGEFTFRRPTIGNECQYALIRPSGNDINEAVFLYEVAIFKLLKDNGHSELIYENKDFIKHVILTSLIENDELFSRSTSTFRSVANKLELAKLTYKKIITKEDNITKDNLKRLLYEKFRASRVSNPVCPYCKEPISDISVADLAHIRPLAFGGQTYIHNLTLAHSTCNRRFGVRDISQYINRC
MGSDKIHHHHHHMEEEMLKCKRLFVSDMDGTFYLGNTLLPGSLDFAMAVHRLGARLVFLTNNSSRTPEEYIRKLEKMGVDRKLFQVYTSGEATISFLKRDFAKKKAFLLSTPSVREMFEKGGVMLDDFDPEVLVLAFDTSITYEKIRRAALLIRQGIPYVASHPDINCPTEEGPIPDVGSLISLFETSTGRRPDHIIGKPDPAILKMVMEDFDCSQEETVVIGDRLYTDIECGLKAEVDTFLVLSGETTRDMIPDRHSYKVVENVGSLAKKIRDHDTV
MGSDKIHHHHHHMEELFTYKEFIKMMQNYGIRHKKRKLRRNENVMTNSSSPNSVILLIKGYICSYTCESPETLLSVFEPGVFLSYSILEDLPPLVTNIALSEECIVYEYEKEDIEYALSLFPENFGFQYFFLKKIGRHLYYKALLNAKDHQEKLYYTIKYLGKLIGEKDGKGNIVLPPEITIKILIEYSTLSKAAFYRQRIRLIEEEILKPHKKTFLVPKKVVKHYEKQLTSI
MGSDKIHHHHHHMEHTRLHNKGLTLDKIFLKTLRTTHNGFLTDGKDRIGYGEFYDRVIAIAEELHRDLGENRTVSVMDWNTLNFATLLYAVPLSGNVLHPVDVRQPPEQVMSSMKEAQSSYLLYSADFGRLADAVKTSGIVKEDNIRSTKEVFDESTDHKPGNAGLPELEEDRIASVLFSSGTTGKPKGVRYRHRDIVLTIWAMETNLSAFPGPARLASSDTVFSLIPFFHLWSWGTLYISTLIGASYVVGGRFDPGSTSDLIKRNGVTWMSMVPTMFNALISWDRNSLDGMKILIGGSAIPSGILNFASDHQIELTGIYGFTDGLAAGIGTSNINGSLSERNADAVNAITPLVFTDFEVEGENNEIKFRSPWIPEGYFNVQEERAYRDGWFYPGDSAEFTQDGKIRIRDRIKDLIKSGGEFIPSALLEYYISEIGDIGDVAVIGVHDDKWIERPVAIYRTRSGATVNDEIIRSYLKDLSNKGLIRDWWIPDRFIPVDSMPMTGTGKIDKKTLRAMLEKGDLRTDRK
MGSDKIHHHHHHMEHTYRLVISCPDRVGIVAKVSNFLSTYNGWITEASHHSDTQAGWFFMRHEIKAESIPFGLDQFRAAFEPIAREFNMNWHIADSARPKRVILMCSKESHCLADLLHRWHSKELNCEIVAVISNHDDLRRMVEWHEIPYHHVPVSKENKAEAFAHIDELFQQYETDVVVLARYMQILPAELCGKYSGKVINIHHSFLPSFAGARPYHQAYSRGVKLIGATCHYVTQDLDEGPIIEQDVIRISHSDSIEDMVRLGKDVEKNVLARGLRSHIEDRVITYENKTVVFD
MGSDKIHHHHHHMEKDRHEIEIFKIDQMFIGDSQEELIKQGEGRRKEHPIAAISTFNPVKRDVFQLIKLTEEKMIPELLGMRHKRMMQNPFSYFRATAGIMEKDLRQFPDGQSHIPVIICGDSHLTNFGFFASPERHLLFGLNDFDEARIGNWEFDLKRLLTSVVLIGRINGYPKEQLDGILAESVHSYRRGIKYANSLPLLDRFNLSYSVDDLLGQMTDNEQMKRVLLKVADRAPKKNSDAVVKKFTEKTEDGRLRFKKNPPRARRVSQKVYAELMASLEDYQKSVADDIRVLLINYEVTDIIRYSVGVGSWGTRCYLALLTGKDGSHLVLQIKEALPLRYNLSALTVEESQAQGKGEGKRIITAQRVLQTYHDPFLGAMEAGGRSFYVRQFRDMKDSIDPLNLDQESFSAYCNMCAFILAIAHYQSPTAPMIYGYVHKQKELDTGLAHWAVKYADQMEADYTCFAKYLQGEGDEE
MGSDKIHHHHHHMEKFIESVANFIDEEDVKVLKAIGSDPIVLHSIKKIFDYPEKANKYLILLRDSPVAVYLVAKISERLSRYLEGEDEAKCFAVFLTALRELRECGDRRVLQNMFLLLKEAIERRLSDGKYEDAAKLVMEFQDFGFKSYVKKVLFFALEVSEEGDYRRAMRILELLPETDAVIDAKASVLLEWGRSLAMSNPEAGMKKIEESLRLKDTVEARLAMAEIHESMGNYEKAYFIYTSLRSLYPGIDRRIARMLMEWGEEIGDVEKLREAYNLAMGDRLLAEEIERRIKKLEAQRLSGS

— the DeepSol protein solubility set
